Experiments:
[1] = biological target: A-beta42 Monomer (human); assay: SPR; purified antibody immobilized, A-beta preparation flowed over
[2] = biological target: A-beta42 Oligomer (synthetic, prepared in F12 medium) (human); assay: as above
[3] = biological target: commercially-prepared stable A-beta42 Oligomers (SynAging SAS) (human); assay: SPR; antibody covalently immobilized, stable A-beta42 oligomers (1 microM) injected
[4] = biological target: A-beta42 Monomer (human); assay: SPR (MASS-1) direct binding; hybridoma culture supernatant over immobilized A-beta42 monomer
[5] = biological target: A-beta42 Oligomer (synthetic, prepared in F12 medium) (human); assay: SPR (MASS-1) direct binding; hybridoma culture supernatant over immobilized A-beta42 oligomer
[6] = biological target: T1, cyclo(CGHHQKG) (SEQ ID NO: 12) conjugated to BSA; assay: SPR (MASS-1) direct binding; hybridoma culture supernatant over immobilized BSA-conjugated peptide
T1 sequence (peptide, cyclic peptide, cyclo(CGHHQKG); conjugated to BSA): CGHHQKG

[7] = biological target: T2, linear CGHHQKG (SEQ ID NO: 12) conjugated to BSA; assay: as above
T2 sequence (peptide, linear (not cyclized); conjugated to BSA): CGHHQKG

Chain of A-beta42 Monomer (human) (peptide, as listed by the source): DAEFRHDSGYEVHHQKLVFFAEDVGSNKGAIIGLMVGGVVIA
Chain of A-beta42 Oligomer (synthetic, prepared in F12 medium) (human) (peptide, as listed by the source): as above
Chain of commercially-prepared stable A-beta42 Oligomers (SynAging SAS) (human) (peptide, as listed by the source): as above

- binding response (RU) [1]: -23.8 RU
- binding response (RU) [2]: 15.5 RU
- binding response units (BRUs), average [3]: 14.5 BRU
- binding response (RU) [4]: -1.8 RU
- binding response (RU) [5]: 56.8 RU
- binding response (RU) [6]: 469 RU
- binding response (RU) [7]: 60.6 RU
B1: 301-3 (antibody, part only; not given: Light chain, two candidates, IgG3, V domains shown, part only)
VH: EVQLVESGGGLVKPGGSLKLSCAASGFTFSDYYMYWVRQTPEKRLEWVATISDGGSYTSYPDSVKGRFTISRDSAKNNLYLQMSSLKSEDTAMYYCARDYYGSNSYTSGFAYWGQGTLVTVSA
